Results on 1 molecule are retold here after patent CN111690059A (WUHAN INST OF BIOLOGICAL PRODUCTS CO LTD, dated 2020).

Assay [1] concerns the target T1, SARS-CoV-2刺突蛋白S1的RBD结构域重组蛋白(Sino公司，货号40592-V05H) (SARS-CoV-2, UniProt P0DTC2 319-541).
T1 construct: domain: RBD结构域; also called RBD结构域的重组蛋白
Kind of assay: ELISA, coated RBD 1.0 μg/mL, goat anti-human IgG-HRP detection. (An ELISA detects its analyte on a solid surface through an enzyme-linked reagent.)

Assay [2] has as its target T2, SARS-CoV-2刺突S1-His重组蛋白(Sino公司，货号:40591-V08H) (SARS-CoV-2, UniProt P0DTC2 16-685).
T2 construct: domain: S1; also called S1蛋白; SARS-CoV-2刺突蛋白S1
Kind of assay: ELISA, coated S1-His 1.0 μg/mL, goat anti-human IgG-HRP detection.

Assay [3] has as its target T1, SARS-CoV-2刺突蛋白S1的RBD结构域重组蛋白(Sino公司，货号405 …). Kind of assay: blocking ELISA, coated RBD, competitor His-tagged ACE2.
Assay [4] has as its target T3, SARS-CoV-2刺突S1亚基蛋白(Sino公司，货号:40591-V02H) (SARS-CoV-2, UniProt P0DTC2 16-685).
T3 construct: domain: S1; also called SARS-CoV-2(2019-nCoV)病毒的刺突蛋白S1
Kind of assay: blocking ELISA, coated S1 subunit protein, competitor His-tagged ACE2.

B1: 抗SARS-CoV-2的单克隆抗体1D7 (antibody, V domains shown)
VH: EVQLVESGGGWIQPGGSLRLSCAASGLTVSSNYMSWVRQAPGKGLEWVSVIYSGGSTYYADSVKGRFTISRDNSKNTLYLQMNSLRAEDTAVYYCARDLVVYGMDVWGQGTTVTVSS
VL: AIRMTQSPSSLSASVGDRVTITCRASQSISSYLNWYQQKPGKAPKLLIYAASSLQSGVPSRFSGSGSGTDFTLTISSLQPEDFATYYCQQSYSTLGMYTFGQGTKLEIK
notes: also called 1D7抗体; 人源抗SARS-CoV-2抗体1D7
What is called EC50 is the concentration needed to bring the measured effect to its halfway point. Usually IC50 stands for the concentration needed to halve the response being measured. Read a low IC50 as greater potency in that assay. Regarding B1, the results for the EC50 in assay [1] and in assay [2] were 0.055 nM and 0.092 nM, respectively. The 50% inhibitory concentration (IC50) stood at 4.1 nM in assay [3] and 7.8 nM in assay [4].
